The values that follow come from paper PMC3653948, “PDZ Domain-Mediated Interactions of G Protein-Coupled Receptors with Postsynaptic Density Protein 95: Quantitative Characterization of Interactions” (PLoS ONE, 2013).

Ends that are not written are not given here.

To fix the notation:
B1: GluN2B C-tail peptide (human), unlabeled (peptide)
peptide: YEKLSSIESDV
notes: No YDDR/DDR linker is told for this peptide; also called NR2B
B2: KIF1Bα C-tail peptide (human), unlabeled (peptide)
peptide: YDDRNLKAGRETTV
notes: N-terminal linker (solubility, concentration determination); YDDR because the C-tail has no Tyr or Trp, by the rule of the methods; source: synthetic peptide (Schafer-N)
B3: CRIPT C-tail peptide (human), unlabeled (peptide)
peptide: LDTKNYKQTSV
notes: No YDDR/DDR linker is told for this peptide
B4: SSTR1 C-tail peptide (human) (peptide)
peptide: YDDRGTCTSRITTL
notes: N-terminal linker; YDDR because the C-tail has no Tyr or Trp, by the rule of the methods; somatostatin receptor 1, human, 10 C-terminal aa; also called hSSTR1; source: synthetic peptide (Schafer-N)
B5: BAI1 C-tail peptide (human) (peptide)
peptide: YDDRQDIIDLQTEV
notes: N-terminal linker; YDDR because the C-tail has no Tyr or Trp, by the rule of the methods; BAI1 receptor, human, 10 C-terminal aa; also called BAI1 receptor; source: synthetic peptide (Schafer-N)
B6: β1AR C-tail peptide (human) (peptide)
peptide: YDDRRPGFASESKV
notes: N-terminal linker; YDDR because the C-tail has no Tyr or Trp, by the rule of the methods; β1-adrenergic receptor, human, 10 C-terminal aa; also called β1-adrenergic receptor; source: synthetic peptide (Schafer-N)
B7: 5-HTR2C C-tail peptide (human) (peptide)
peptide: YDDRSVVSERISSV
notes: N-terminal linker; YDDR because the C-tail has no Tyr or Trp, by the rule of the methods; 5-hydroxytryptamine receptor 2C, human, 10 C-terminal aa; source: synthetic peptide (Schafer-N)
B8: β2AR C-tail peptide (human) (peptide)
peptide: YDDRRNCSTNDSLL
notes: N-terminal linker; YDDR because the C-tail has no Tyr or Trp, by the rule of the methods; β2-adrenergic receptor, human, 10 C-terminal aa; source: synthetic peptide (Schafer-N)
B9: 5-HTR2A C-tail peptide (human) (peptide)
peptide: YDDRDGVNEKVSCV
notes: N-terminal linker; YDDR because the C-tail has no Tyr or Trp, by the rule of the methods; 5-hydroxytryptamine receptor 2A, human, 10 C-terminal aa; also called 5-hydroxytryptamine receptor 2A; source: synthetic peptide (Schafer-N)
B10: SSTR3 C-tail peptide (human) (peptide)
peptide: DDRKSSTMRISYL
notes: N-terminal linker; DDR (Tyr omitted) because the C-tail contains Tyr, by the rule of the methods; somatostatin receptor 3, human, 10 C-terminal aa; source: synthetic peptide (Schafer-N)
B11: SSTR1 C-tail peptide (mouse) (peptide)
peptide: YDDRGTCASRISTL
notes: N-terminal linker; YDDR because the C-tail has no Tyr or Trp, by the rule of the methods; somatostatin receptor 1, mouse, 10 C-terminal aa; also called mSSTR1; source: synthetic peptide (Schafer-N)

For one test, the target named is T1, PSD-95 PDZ2 (aa 155–249) (UniProt P78352 155-249).
T1 construct: postsynaptic density protein 95 (PSD-95), PDZ2, aa 155–249; also called isolated PDZ2
Put plainly: fluorescence polarisation; competition: 25 nM Cy5-labeled probe and a constant concentration of PDZ protein corresponding to the K d of the probe, twofold dilution series of unlabeled peptide (typically 1–512 µM); 10 mM HEPES pH 7.4, 150 mM NaCl, 1% BSA; room temperature; K i calculated from the IC50. As to conditions: both partners purified.
For the molecule KYVSYNNLVI-OH (not fully specified) [metabotropic glutamate receptor mGlu7(a) C-tail peptide, human], the Ki (commonly a measure of affinity in units of concentration, obtained from inhibition or displacement) was more than 1000 µM.
In the case of RDYKQSSSTL-OH (not fully specified) [metabotropic glutamate receptor mGlu1(a) C-tail peptide, human], the Ki is more than 1000 µM.
Take RNCSTNDSLL-OH (not fully specified) [β2-adrenergic receptor (β2AR) C-tail peptide, human]: the Ki was 720 µM.

The next test addresses PSD-95 PDZ1 (aa 61–151) (UniProt P78352 61-151). Described as above. As to conditions: both partners purified.
Regarding KYVSYNNLVI-OH (not fully specified) [metabotropic glutamate receptor mGlu7(a) C-tail peptide, human], the Ki is 610 µM.
Take RDYKQSSSTL-OH (not fully specified) [metabotropic glutamate receptor mGlu1(a) C-tail peptide, human]: the Ki is 830 µM.
The same measure, in the same setting: the result for RNCSTNDSLL-OH (not fully specified) [β2-adrenergic receptor (β2AR) C-tail peptide, human] reads more than 1000 µM.

For the next test, the target named is T2, PSD-95 PDZ3 (aa 309–401) (UniProt P78352 309-401).
T2 construct: postsynaptic density protein 95 (PSD-95), PDZ3, aa 309–401
The test is described as above. As to conditions: both partners purified.
For the molecule KYVSYNNLVI-OH (not fully specified) [metabotropic glutamate receptor mGlu7(a) C-tail peptide, human], the Ki is more than 1000 µM.
For the molecule RDYKQSSSTL-OH (not fully specified) [metabotropic glutamate receptor mGlu1(a) C-tail peptide, human], the Ki was more than 1000 µM.
As for RNCSTNDSLL-OH (not fully specified) [β2-adrenergic receptor (β2AR) C-tail peptide, human], the Ki is more than 1000 µM.

The next test concerns the target T3, PSD-95 PDZ2 (aa 155-249) (UniProt P78352 155-249).
T3 construct: postsynaptic density protein 95 (PSD-95), PDZ2, aa 155-249
Briefly: fluorescence polarisation; competition: 25 nM Cy5-labeled probe (Cy5-KIF1Bα for PDZ1, Cy5-GluN2B for PDZ2, Cy5-CRIPT for PDZ3), constant PDZ protein at the probe's Kd, twofold dilution series of unlabeled peptide (typically 1–512 µM); 10 mM HEPES pH 7.4, 150 mM NaCl, 1% BSA, room temperature; Ki calculated from IC50. As to conditions: both partners purified.
As to B1, the inhibitory constant (Ki) is 5.5 µM.
In the case of B2, the Ki was 3.8 µM.

Another test addresses T4, PSD-95 PDZ3 (aa 309-401) (UniProt P78352 309-401).
T4 construct: postsynaptic density protein 95 (PSD-95), PDZ3, aa 309-401
Described as above. As to conditions: both partners purified.
As to B1, the Ki was more than 1000 µM.
Consider B3, for which the Ki is 2.9 µM.
B2: the Ki was 14 µM.

In a further test the target is T5, PSD-95 PDZ1 (aa 61-151) (UniProt P78352 61-151).
T5 construct: postsynaptic density protein 95 (PSD-95), PDZ1, aa 61-151
Described as above. As to conditions: both partners purified.
In the case of B1, the Ki is 29 µM.
With B2, the inhibitory constant (Ki) was 7 µM.

The target of a further test is T3, PSD-95 PDZ2 (aa 155-249). Briefly: SPR; PDZ domain immobilised by amine coupling (CM5 for PDZ1 and PDZ2, CM4 for PDZ3), peptides injected; Biacore X100, 25.0°C, HBS-EP+ (10 mM HEPES pH 7.4, 150 mM NaCl, 3 mM EDTA, 0.05% Surfactant P-20); 1 mM DTT for peptides with a cysteine; Kd from steady-state responses, 1:1 model with a linear component. As to conditions: both partners purified. (In general: Surface plasmon resonance follows binding to a sensor surface in real time, without labels.)
With B4, the Kd (in general, the constant that tells how readily two partners part at equilibrium) amounted to 76 µM.
Molecule B1 registered a Kd of 1.4 µM.
Turning to B5, the Kd worked out at 74 µM.
For B6, the Kd turned out to be 180 µM.
For B7, the Kd is 62 µM.
In turn, B8 showed a Kd of 2090 µM.
Same read-out and setting: the result for B2 reads 1.1 µM; that for B9, 110 µM.

The next test has as its target T4, PSD-95 PDZ3 (aa 309-401). Described as above. As to conditions: both partners purified.
Molecule B5 showed a Kd of 2400 µM.
With B3, the affinity, expressed as Kd, was 1.5 µM.
Molecule B6 came in with a Kd of 400 µM.
Regarding B7, the Kd turned out to be 780 µM.
B10 gave a Kd of 240 µM.

For another test, the target named is T5, PSD-95 PDZ1 (aa 61-151). Described as above. As to conditions: both partners purified.
Molecule B4 displayed a Kd of 84 µM.
In turn, B5 displayed a Kd of 120 µM.
Still for that read-out and setting: the result for B7 reads 160 µM.
Still for that read-out and setting: in the case of B11 it was 270 µM; in that of B2, 2.2 µM; in that of B9, 630 µM.
